T1: amphyphisin SH3 (AMPH_HUMAN), P49418
T1 chain: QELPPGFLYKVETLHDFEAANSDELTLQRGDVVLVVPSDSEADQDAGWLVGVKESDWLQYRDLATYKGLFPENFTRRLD


How the values were obtained:
[1] = target: T1, amphyphisin SH3 (AMPH_HUMAN), P49418; assay: SPOT array
[2] = target: endophilin SH3 (SH3G2_HUMAN), Q99962; assay: SPOT array

Binder	normalised SPOT signal, Boehringer light units (BLU); mean over the file's lines of this peptide [1]	normalised SPOT signal, Boehringer light units (BLU); mean over the file's lines of this peptide [2]
GRSALRRPWRKSGS [Q9BR44 22-35]	531	160
GRTPPARPPQDPAE [BAC05028 186-200]	69	129
GSALPRRPLLSIPA [Q01974 4-17]	36.4	2140
GSESLSRPWRARAK [O94851 799-812]	248	91.7
GSEKPKRPVSAMFI [P17480 403-416]	39.3	2530
GSELPRRPLPPAAQ [P04818 4-17]	40.1	70.6
GSEPPRRPPPAPHD [P48634 1687-1701]	372	2350
GSGKPSRPSKPIVA [Q15598 1240-1253]	125	1350
ALLVPVKPPTAWEG [Q8TCB4 82-96]	2.4	55.1
GSGSPVRPPVSTWG [Q9NUB4 27-41]	32.2	16.6
GSPAPKRPPDPFPG [O43593 424-437]	51.3	706
GSPEPKRPGVSEAA [Q9UN79 64-77]	26.6	17.9
GSQAPARPPKPRPR [Q13191 898-911]	423	62500
GSQVPERPPKPFPR [P22681 815-829]	1710	13600
GSSALKRPFEDGLG [Q9BXG4 352-365]	27.5	39.6
GSSSPSRPPGLSSN [BAC05127 110-124]	72.7	318
GSVELRRPPAHQVM [Q15142 511-524]	55.2	52.2
GSVHPVRPMRLESF [P26022 194-207]	9890	2470
GSWSPMRPKKEAMK [O75928 422-435]	168	1880
ALPHFRRPFFEEAA [Q9HCI5 739-752]	43.2	95.9
GTGSPARPPTPAQV [Q9Y4Y7 208-222]	85.9	2420

Binder	normalised SPOT signal, Boehringer light units (BLU); mean over the file's lines of this peptide [1]	normalised SPOT signal, Boehringer light units (BLU); mean over the file's lines of this peptide [2]
GTLPPPRPRREGRS [Q9H7L8 148-161]	5470	3720
GTPKPKRPAILTYH [Q9UN36 56-69]	33.4	1130
GTQELRRPAQLRLQ [P98161 595-608]	47.4	45.8
GTRAPQRPKRESRG [Q9H7I4 14-27]	11400	1420
GTRQLGRPKRSPRS [P01266 150-163]	148	152
GTVELRRPGQSHAA [Q9NVM4 598-611]	29	42.6
GTVYPKRPEKPVPP [Q9Y5K6 406-419]	42.9	962
GTYQLRRPEDRPAG [Q96AB7 34-47]	14.3	21.7
GVISLKRPFINLTA [Q9NYQ8 617-630]	16.4	35.8
ALPLPGRPARGVFY [Q9P025 127-140]	602	1290
GVPVPKRPAEGGGG [Q9NY27 58-71]	17.4	88.7
GVSKPRKPPMVMTP [Q9Y6X0 438-452]	58.3	328
GWATPRRPAGLLML [O60449 4-17]	48.3	247
GWGSPGRPKKKHTG [O94987 842-855]	135	317
GWGSPRRPTEAEAR [Q14767 91-104]	23.4	194
GWIQPRRPRDPTPS [Q14137 202-215]	76.8	836
GWRSLQRPARRSGR [Q99700 27-40]	2550	39.1
GYDRLRRPGSRSKH [Q9C004 264-277]	30.6	142
GYDSLRRPGSRSKR [O43610 251-264]	31.2	141
GYGLLVRPSRVRRA [O75134 505-518]	2560	747
ALPLPRRPSALPPK [Q96MH8 48-61]	151	5800
